In patent publication US20260102461A1 (AIKIUM, published 2026) one finds binding result and fluorescent signal data, which are given here for twelve molecules.

Test [1] concerns the target T1, CYSLTR2 Epitope SISVSEMEPNGTFSNNNSRNC (N-terminally biotinylated).
T1 peptide: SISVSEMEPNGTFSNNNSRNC
Kind of test: ELISA, scaffold coated on the plate, biotinylated peptide titrated, streptavidin-HRP fluorescence. On the procedure:
(§1) Binder proteins were coated on the surface of a high binding capacity 96 well plate by incubating 100 μL of protein at […] in a coating solution (10 mM Tris pH 8.8, 50 mM NaCl), overnight at 4 C. The next morning, the coating solution was aspirated out and wells were washed once with 300 μL ELISA wash buffer (lx PBS, 0.05% Tween-20) and solution was aspirated out. The wells were blocked with 200 μL of a blocking buffer (1×PBS, 0.05% Tween-20, 3% BSA) at room temperature for 1 hour. After one hour, the blocking solution was aspirated out and 100 μL of biotinylated polypeptide in a binding buffer (1×PBS, 0.05% Tween-20, 0.5% BSA) at various concentrations was added to the appropriate well and incubated for 20 minutes. Peptide solution was aspirated out after 20 minutes and wells were washed 5 times with 300 μL of ELISA wash buffer. To detect the biotinylated peptide, 100 μL of streptavidin-HRP (50 ng/mL) was added to each well and incubated for 1 hour. The wells were subsequently washed 5 times with 300 μL of ELISA wash buffer. 100 μL of QuantaBlu Fluorogenic Peroxidase substrate solution was added to each well, incubated for 30 minutes and reaction stopped by adding 100 μL of stop solution. Fluorescent signal from each well was measured using a Biotek Cytation5 plate reader by exciting the fluorophore at […] and measuring emission at 420 nm. Fluorescent signals were plotted as a function of polypeptide concentration.

Test [2] has as its target T2, KAAG1 disordered region peptide, PGAAAAHLPRWPPPQLAASRREA (biotin (position not given)).
T2 peptide: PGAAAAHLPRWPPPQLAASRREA
The description is as above. The procedure: as §1

Test [3] addresses T3, GMERKFMSLQPSISVSEMEPNGTFSNNNSRNCTIENFKREFFP (biotinylated, position not given).
T3 peptide: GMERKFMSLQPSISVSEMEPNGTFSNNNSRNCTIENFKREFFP
The test is described as above. On the procedure:
as §1

Test [4] concerns the target T4, TNFRSF13B disordered region peptide, LPPELRRQRSGEVENNSDNSGRYQ (biotin (position not given)).
T4 peptide: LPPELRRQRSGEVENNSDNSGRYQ
The test is described as above. On the procedure: as §1

Test [5] addresses T5, KCNA6 Epitope QQQEQQPASGGGGQNGQQAMS (biotin (position not given)).
T5 peptide: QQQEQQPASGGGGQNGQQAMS
The test is described as above. On the procedure:
as §1

The target of test [6] is T6, CD40LG Epitope NKEETKKENSFEMQKGDQNPQIAAH (biotin (position not given)).
T6 peptide: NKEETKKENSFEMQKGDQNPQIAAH
The description is as above. On the procedure:
as §1

Test [7] has as its target T2, KAAG1 disordered region peptide, …. Kind of test: modified sandwich ELISA (scaffold coated, biotinylated peptide, streptavidin-HRP fluorescence). (In general: In an ELISA, binding on a coated surface is turned into a signal by an enzyme label.)
The target of test [8] is T7, CD74 disordered region peptide (CLIP), PPKPVSKMRMATPLLMQALPMGALP (biotin (position not given)).
T7 peptide: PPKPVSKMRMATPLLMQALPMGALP
Kind of test: modified sandwich ELISA, fluorescence grade (key: >400000, Strong binding).

The target of test [9] is T8, Urotensin-2 receptor (UR-II-R) disordered region, MALTPESPSSFPGLAATGSSVPEPPGGPNATLNSSWASPTEPSSLEDLVATGTI (biotin (position not given)).
T8 construct: also called Urotensin II R; GPCR2 (Urotensin II)
T8 peptide: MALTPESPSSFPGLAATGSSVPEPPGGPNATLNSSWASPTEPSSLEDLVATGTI
Kind of test: modified sandwich ELISA (scaffold coated, biotinylated peptide, streptavidin-HRP fluorescence).

The target in test [10] is T9, CYSLTR2 N-terminal disordered region, MERKFMSLQPSISVSEMEPNGTFSNNNSRNCTIENFKREFFP (biotin (position not given)).
T9 construct: also called CysLT2; CysLT2r
T9 peptide: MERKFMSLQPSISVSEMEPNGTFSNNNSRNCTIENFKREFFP
In words: ELISA, scaffold coated on the plate, biotinylated peptide titrated, streptavidin-HRP fluorescence. The procedure:
as §1

B1: S194 (designed binder)
chain: MGIKEEHVINQAEYYLNPDQSGEFKFDFDGDEIFHVDMAKKETVWRLEEFGRFASFEAQGALAHIAVDKANLEIMTKRSNYTPMGGGSKARMATGALAQAGGSGGSGDTRPRFLWQLKYECHFFNGTERVRLNERCIYNQEESVRFDSDVGEYRAVTELGRPDAEQWNSQKDHLEQRRAAVDTKCRHNYGVGESFTVQGGSHHHHHH
Regarding B1, the binding result in [1] is on record as “binds”; in test [2], “no binding (tested: 10000 nM)”; in test [3], “binds”; in test [4] it was “no binding (tested: 10000 nM)”; in [5], “no binding (tested: 10000 nM)”; in [6] it was “no binding (tested: 10000 nM)”.

B2: S068 (designed binder)
chain: GDTRPRFLWQLKFECHFFNGTERVRLLERCIYNQEESVRFDSDVGEYRAVTELGRPDAEYWNSQKDLLEQRRAAVDTYCRHNYGVGESFTVQRRVEPKVTVYPSKTQPLQHHNLLVCSVSGFYPGSIEVRWFRNGQEEKAGVVSTGLIQNGDWTFQTLVMLETVPRSGEVYTCQVEHPSVTSPLTVEWRASGGGGSGGGGSGGGGIKEEHVIIQAEFYLNPDQSGEFMFDFDGDEIFHVDMAKKETVWRLEEFGRFASFEAQGALANIAVDKANLEIMTKRSNYTPITNVPPEVTVLTNSPVELREPNVLICFIDKFTPPVVNVTWLRNGKPVTTGVSETVFLPREDHLFRKFHYLPFLPSTEDVYDCRVEHWGLDEPLLKHWEFDAPSGGSHHHHHHLE
With B2, the binding result in [7] was “no binding (tested: <5000 (fluorescence signal, key))”. Moreover, the fluorescent signal in test [8] is more than 400000 fluorescentsignal.

B3: S058 (designed binder)
chain: GSHSMRYNYTSVSRPGRGEPRFISEGYVDDTQFVRFDSDAASPREEPRAPWIEQEGPEYWDRNTQIYKAQAQTDRESLRNLRGYYNQSEAGSHTLQSMYGCDVGPDGRLLRGHDQYYYDGKDYISLNEDLRSWTAADTAAQITQRKWEAAREAEQRRAYLEGECVEWLRRYLENGKDKLERADGGSHHHHHHLE
notes: Derived from MHC I proteins
As to B3, the binding result in [2] is “binds”; in test [9] it was “no binding (tested: <5000 (fluorescence signal, key))”.

B4: S065 (designed binder)
chain: GSHSMRYFYTSVSRPGRGEPRFISVGYVDDTQFVRFDSDAASPREEPRAPWIEQEGPEAWDRNTQIYKAQAQTDRESLRNLRGYYNQSEAGSHTLQSMYGCDVGPDGRLLRGHDQYAYDGKDSIALNEDLRSWTAADTAAQITQRYWEAAREAEQRRAYLEGECVEHLRRVLENGKDKLERADGGSHHHHHHLE
notes: Derived from MHC I proteins
In the case of B4, the binding result in test [2] is on record as “no binding (tested: 10000 nM)”; in test [9] it was “no binding (tested: <5000 (fluorescence signal, key))”.

B5: S180 (designed binder)
single chain: MKEEHVIIQAEFYLNPDQSGEFMFDFDGDEIFHVDMAKKETVWRLEEFGRFASFEAQGALANIAVDKANLEIMTKRSNYTPITNTRPRFLWQPKRECHFFNGTERVRFLDRYFYNQEESVRFDSDVGEFRAVTELGRPDAEYWNSQKDILEQARAAVDTYCRHNYGVVESFTVQRRVQGGSHHHHHHLE
Consider B5, for which the binding result in test [1] and in [3] was “binds” in each case.

B6: S077 (designed binder)
chain: KPVSKMRMATPLLMQALPMASGGGGSGGGGDTRPRFLWQLKFECHFFNGTERVRLLERCIYNQEESVRFDSDVGEYRAVTELGRPDAEYWNSQKDLLEQRRAAVDTYCRHNYGVGESFTVQRRSGGGIKEEHVIIQAEFYLNPDQSGEFMFDFDGDEIFHVDMAKKETVWRLEEFGRFASFEAQGALANIAVDKANLEIMTKRSNYTGGSHHHHHHLE
For B6, the binding result in test [7] was “no binding (tested: <5000 (fluorescence signal, key))”. Also, the fluorescent signal in test [8] was more than 400000 fluorescentsignal.

B7: S164 (designed binder)
chain: GIKEEHSIRQNEKYNNPDQSGNFEFHLDGQPIFRVDMQKKRTKWQLEEFGRFASFEAQGALANIAVFKINLEIMTKRSNQSEAGSHSWQLNFTCEFHEGTESVRLSERSYYNQENFVSFNSDVGEYRATTELGRPMAEYVNSQKDTLEQRRAAVDTYCRHNYGVGEYFTVQRR
notes: Computationally derived scaffold
On to B7, for which the binding result in [10] and in test [2] was “no binding (tested: 10000 nM)” each time.

B8: S143 (designed binder)
chain: MGDTRPRFLWQLKFECHFFNGTERVRLLERCIYNQEESVRFDSDVGEYRAVTELGRPDAEYWNSQKDLLEQRRAAVDTYCRHNYGVGESFTVQRRVIKEEHVIIQAEFYLNPDQSGEFMFDFDGDEIFHVDMAKKETVWRLEEFGRFASFEAQGALANIAVDKANLEIMTKRSNYTPTINGGSHHHHHH
For B8, the binding result in [7] was “no binding (tested: <5000 (fluorescence signal, key))”. The molecule also displayed a fluorescent signal in test [8] of more than 400000 fluorescentsignal.

B9: S193 (designed binder)
chain: MGSKARMATGALAQAGGSGGSMIKEEHVINQAEYYLNPDQSGEFKFDFDGDEIFHVDMAKKETVWRLEEFGRFASFEAQGALAHIAVDKANLEIMTKRSNYTPMGDTRPRFLWQLKYECHFFNGTERVRLNERCIYNQEESVRFDSDVGEYRAVTELGRPDAEQWNSQKDHLEQRRAAVDTKCRHNYGVGESFTVQGGSHHHHHH
As to B9, the binding result is on record as “binds” in test [1]; “no binding (tested: 10000 nM)” in test [2]; “binds” in [3]; “no binding (tested: 10000 nM)” in test [4]; “no binding (tested: 10000 nM)” in [5]; “no binding (tested: 10000 nM)” in test [6].

B10: S134 (designed binder)
chain: MVKYHHHHHHGGSENLYFQGMGDTRPRFLWQPKRECHFFNGTERVRFLDRYFYNQEESVRFDSDVGEFRAVTELGRPDAEYWNSQKDILEQARAAVDTYCRHNYGVVESFTVQRRVIKEEHVIIQAEFYLNPDQSGEFMFDFDGDEIFHVDMAKKETVWRLEEFGRFASFEAQGALANIAVDKANLEIMTKRSNYTPITN
As to B10, the binding result in test [7] is listed as “no binding (tested: <5000 (fluorescence signal, key))”.

B11: S171 (designed binder)
chain: GDTRPRFLWQLKWECHFYNGTERVRLNERCNYNQEESVRFDSDVGEYRAVTELGRPDAEFSNSQKDNLEQRRAAVDTLCRHNYGVGESFTVQRRSGGGIKEEHVINQAEYYLNPDQSGEFKFDFDGDEIFHVDMAKKETVWRLEEFGRFAIIEAYGALANIAVDKANLEIMTKQSNYT
notes: as for B7
In the case of B11, the binding result in test [10] and in test [2] was “no binding (tested: 10000 nM)” throughout.

B12: S189 (designed binder)
single chain: MGIKEEHVINQAEYCLNPDQSGEFKFDFDGDEIFHVDMAKKETVWRLEEFGRFASFEAQGALAHIAVDCANLEIMTKRSNYTPMGDTRPRFLWQLKYECHFFNGTERVRLNERCIYNQEESVRFDSDVGEYRAVTELGRPDAEQWNSQKDHLEQRRAAVDTKCRHNYGVGESFTVQGGSHHHHHH
For the molecule B12, the binding result in test [1] and in [3] was “binds” in each case.
